Measured values reported in patent publication US20220048996A1 (F STAR BETA, published 2022).

How the values were obtained:
[1] = biological target: T1, human OX40 expressed on DO11.10 cells (DO11.10-hOX40) (human, UniProt P43489 29-277); test: cell-based or functional assay
T1 sequence: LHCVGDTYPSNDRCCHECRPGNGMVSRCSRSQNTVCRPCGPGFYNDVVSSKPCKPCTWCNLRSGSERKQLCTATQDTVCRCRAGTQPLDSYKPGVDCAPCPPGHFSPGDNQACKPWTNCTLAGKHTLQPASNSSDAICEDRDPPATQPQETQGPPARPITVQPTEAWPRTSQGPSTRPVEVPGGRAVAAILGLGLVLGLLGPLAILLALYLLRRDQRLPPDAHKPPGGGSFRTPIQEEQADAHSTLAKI

[2] = biological target: T1, human OX40 expressed on DO11.10 cells …; test: flow cytometry on DO11.10 cells expressing the target
[3] = biological target: T2, cynomolgus CD137 expressed on DO11.10 cells (DO11.10-cCD137) (cynomolgus monkey, UniProt Q07011 24-255 (human entry)); test: as above
T2 chain: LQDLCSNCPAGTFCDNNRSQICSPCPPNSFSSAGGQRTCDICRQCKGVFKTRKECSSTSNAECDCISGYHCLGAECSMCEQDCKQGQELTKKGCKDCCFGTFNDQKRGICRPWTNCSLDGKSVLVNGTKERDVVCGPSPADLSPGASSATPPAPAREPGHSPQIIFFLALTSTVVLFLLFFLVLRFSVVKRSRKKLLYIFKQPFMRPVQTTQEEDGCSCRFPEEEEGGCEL

[4] = biological target: T3, cynomolgus OX40 expressed on DO11.10 cells (DO11.10-cOX40) (cynomolgus, UniProt P43489 29-277 (human entry)); test: as above
T3 chain: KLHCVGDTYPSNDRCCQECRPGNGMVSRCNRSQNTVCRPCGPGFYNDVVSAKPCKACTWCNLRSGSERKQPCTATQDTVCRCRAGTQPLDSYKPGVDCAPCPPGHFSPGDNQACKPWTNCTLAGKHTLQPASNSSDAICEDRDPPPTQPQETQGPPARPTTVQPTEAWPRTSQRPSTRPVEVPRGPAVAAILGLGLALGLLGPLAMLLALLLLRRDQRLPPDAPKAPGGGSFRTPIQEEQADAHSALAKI

[5] = biological target: T4, human CD137 expressed on DO11.10 cells (DO11.10-hCD137) (human, UniProt Q07011 24-255); test: as above
T4 construct: also called CD137 on human T cells

hOX40-mFc = biological target: T5, hOX40-mFc (human); test: SPR, antibody captured via anti-human Fab, dimeric antigen flowed, 1:1 fit
T5 construct: Dimeric; also called human OX40-mFc
T5 chain: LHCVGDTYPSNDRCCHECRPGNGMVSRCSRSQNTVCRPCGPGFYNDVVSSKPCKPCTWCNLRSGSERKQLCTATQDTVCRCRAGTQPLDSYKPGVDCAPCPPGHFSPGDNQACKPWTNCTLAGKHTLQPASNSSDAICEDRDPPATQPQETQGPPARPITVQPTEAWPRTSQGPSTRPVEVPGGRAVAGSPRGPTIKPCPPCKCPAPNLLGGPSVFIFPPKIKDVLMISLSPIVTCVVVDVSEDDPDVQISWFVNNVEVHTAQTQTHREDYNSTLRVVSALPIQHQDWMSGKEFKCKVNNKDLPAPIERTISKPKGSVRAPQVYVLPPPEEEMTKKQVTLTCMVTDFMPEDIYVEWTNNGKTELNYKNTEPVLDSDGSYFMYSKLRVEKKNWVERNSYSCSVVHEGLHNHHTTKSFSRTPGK
Procedure: (§1) For OX40 affinity determination a Biacore CM5 chip was coated with anti-human Fab using a Human Fab Capture Kit (GE Healthcare 28958325) according to manufacturer's conditions, to a surface density of approximately 8000 RU. […] The association time was 2 min and the dissociation time was 8 min. Running buffer was HBS-EP. Flow cells were regenerated by injecting glycine-HCl at pH 2.1 at a flow rate of 30 μl/min for 30 seconds.
(§2) The binding kinetics were fit with a 1:1 Langmuir model to generate binding association (kₐ) and dissociation (kd) rates. Equilibrium binding constants (KD) were calculated by dividing the dissociation rate by the association rate for each sample. Data analysis was performed with BiaEvaluation software version 3.2.

cOX40-mFc = biological target: T6, cOX40-mFc (cynomolgus); test: as above
T6 construct: Dimeric; also called cyno OX40-mFc
T6 chain: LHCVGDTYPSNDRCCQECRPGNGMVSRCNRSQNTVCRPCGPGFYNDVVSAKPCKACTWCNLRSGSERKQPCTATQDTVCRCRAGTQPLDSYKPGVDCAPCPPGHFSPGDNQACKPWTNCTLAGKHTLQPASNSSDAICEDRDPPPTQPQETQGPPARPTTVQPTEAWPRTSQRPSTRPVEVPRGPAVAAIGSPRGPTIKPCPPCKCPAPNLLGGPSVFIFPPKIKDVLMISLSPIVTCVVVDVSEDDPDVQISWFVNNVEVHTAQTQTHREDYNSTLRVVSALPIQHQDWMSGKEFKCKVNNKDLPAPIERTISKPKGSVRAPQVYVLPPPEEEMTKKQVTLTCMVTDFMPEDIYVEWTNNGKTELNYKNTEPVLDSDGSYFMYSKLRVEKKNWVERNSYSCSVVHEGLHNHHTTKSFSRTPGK
Procedure: as §1, §2

[6] = biological target: T2, cynomolgus CD137 expressed on DO11.10 …; test: flow cytometry on DO11.10 cells expressing the target, mean ± SD of three experiments
Procedure: 50 μl of the antibody dilutions were added to the wells containing cells (final volume 100 μl) and incubated at 4° C. for 1 hour. […] The plates were washed and resuspended in 100 μl of PBS containing DAPI (Biotium, cat no 40043) at 1 μg/ml. The plates were analysed using a Canto II flow cytometer (BD Bioscience) and the data analysed using FlowJo. Dead cells were identified by their higher fluorescence on the UV (405 nm/450/50) channel and excluded from analysis. […] The GMFI data was fit using log (agonist) vs response (three parameters) in Graph Pad Prism Software to generate EC₅₀ values.
However, in this experiment, instead of using HEK cells to analyse the non-specific binding, non-transduced DO11.10 cells were used. […] The experiment was repeated three times to increase the reliability of the EC₅₀ values calculated.

B1: FS20-22-49AA/FS30-10-16 (bispecific antibody, human IgG1, kappa, L234A L235A)
heavy: EVQLLESGGGLVQPGGSLRLSCAASGFTFSSYDMSWVRQAPGKGLEWVSDIDPTGSKTDYADSVKGRFTISRDNSKNTLYLQMNSLRAEDTAVYYCARDLLVYGFDYWGQGTLVTVSSASTKGPSVFPLAPSSKSTSGGTAALGCLVKDYFPEPVTVSWNSGALTSGVHTFPAVLQSSGLYSLSSVVTVPSSSLGTQTYICNVNHKPSNTKVDKKVEPKSCDKTHTCPPCPAPEAAGGPSVFLFPPKPKDTLMISRTPEVTCVVVDVSHEDPEVKFNWYVDGVEVHNAKTKPREEQYNSTYRVVSVLTVLHQDWLNGKEYKCKVSNKALPAPIEKTISKAKGQPREPQVYTLPPSRDEYWDQEVSLTCLVKGFYPSDIAVEWESNGDEQFAYKTTPPVLDSDGSFFLYSKLTVDQYRWNPADYFSCSVMHEALHNHYTQKSLSLSPG
light: EIVLTQSPGTLSLSPGERATLSCRASQSVSSSYLAWYQQKPGQAPRLLIYGASSRATGIPDRFSGSGSGTDFTLTISRLEPEDFAVYYCQQSYSYPVTFGQGTKVEIKRTVAAPSVFIFPPSDEQLKSGTASVVCLLNNFYPREAKVQWKVDNALQSGNSQESVTEQDSKDSTYSLSSTLTLSKADYEKHKVYACEVTHQGLSSPVTKSFNRGEC
notes: IgG1 with LALA; also called OX40/CD137 mAb^2; copies: 2 + 2
In the case of B1, the “SEA assay (PBMC), hIL-2 max response, crosslinked” value [1] is reported as 33800 pg/mL, the “SEA assay (PBMC), hIL-2 max response, no crosslinker” value [1] is reported as 35100 pg/mL and the “SEA assay (PBMC), hIL-2 release EC50, crosslinked” value [1] is reported as 100 pM. The “SEA assay (PBMC), hIL-2 release EC50, no crosslinker” value [1] was 140 pM, the EC50 [2] was 157 pM and the EC50 [3] was 80.3 pM. It also gave an EC50 [4] of 380 pM, an EC50 [5] of 129 pM and a Kd (hOX40-mFc) of 214 pM. For the same binder, the Kd (cOX40-mFc) was 861 pM and the EC50 [6] was 120 pM.
